From patent US20130129746A1 (GlaxoSmithKline, published 2013)

B4: Rat Serum Albumin (other, UniProt P02770 25-608, looked up)
chain: EAHKSEIAHRFKDLGEQHFKGLVLIAFSQYLQKCPYEEHIKLVQEVTDFAKTCVADENAENCDKSIHTLFGDKLCAIPKLRDNYGELADCCAKQEPERNECFLQHKDDNPNLPPFQRPEAEAMCTSFQENPTSFLGHYLHEVARRHPYFYAPELLYYAEKYNEVLTQCCTESDKAACLTPKLDAVKEKALVAAVRQRMKCSSMQRFGERAFKAWAVARMSQRFPNAEFAEITKLATDVTKINKECCHGDLLECADDRAELAKYMCENQATISSKLQACCDKPVLQKSQCLAEIEHDNIPADLPSIAADFVEDKEVCKNYAEAKDVFLGTFLYEYSRRHPDYSVSLLLRLAKKYEATLEKCCAEGDPPACYGTVLAEFQPLVEEPKNLVKTNCELYEKLGEYGFQNAVLVRYTQKAPQVSTPTLVEAARNLGRVGTKCCTLPEAQRLPCVEDYLSAILNRLCVLHEKTPVSEKVTKCCSGSLVERRPCFSALTVDETYVPKEFKAETFTFHSDICTLPDKEKQIKKQTALAELVKHKPKATEDQLKTVMGDFAQFVDKCCKAADKDNCFATEGPNLVARSKEALA
notes: mature; purified protein on CM5 chips for BIAcore; also called RSA; rat SA

Legend:
[1] = target: B4; test: BIAcore SPR;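 further: purified dAbs run at 1 µM, 500 nM and 50 nM over human, cynomolgus, mouse and rat serum albumin in BIAcore binding measurements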
Method: (§1) Binding to HSA, CSA, MSA and RSA by BIAcore was confirmed using purified protein at 3 concentrations 1 μM, 500 nM and 50 nM.

[2] = target: T1, Human Serum Albumin (human, UniProt P02768 25-609); test: BIAcore SPR;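 further: purified dAbs run at 1 µM, 500 nM and 50 nM over human, cynomolgus, mouse and rat serum albumin in BIAcore binding measurements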
T1 construct: mature; purified protein on CM5 chips for BIAcore; also called HSA; human SA
Method: as §1

[3] = target: T2, Cynomolgus monkey Serum Albumin (Cynomolgus monkey, UniProt A2V9Z4 25-608); test: BIAcore SPR;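 further: purified dAbs run at 1 µM, 500 nM and 50 nM over human, cynomolgus, mouse and rat serum albumin in BIAcore binding measurements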
T2 construct: mature; purified protein on CM5 chips for BIAcore; also called CSA; cyno SA
Method: as §1

[4] = target: T3, mouse serum albumin (mouse, UniProt P07724 25-608); test: BIAcore SPR;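 further: purified dAbs run at 1 µM, 500 nM and 50 nM over human, cynomolgus, mouse and rat serum albumin in BIAcore binding measurements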
T3 construct: mature; purified protein on CM5 chips for BIAcore; also called MSA; mouse SA
Method: as §1

[5] = target: T2, Cynomolgus monkey Serum Albumin; test: Albumin KD column of the PK table (repeats Table 6; row marked historical data)
[6] = target: B4; test: Albumin KD column of the PK table (repeats Table 6; row marked historical data); Albumin KD column of PK Table 10; historical data
[7] = target: T2, Cynomolgus monkey Serum Albumin; test: Albumin KD column of the PK table (row marked historical data; differs from Table 6); historical data (*), not the Table 6 run
[8] = target: B4; test: Albumin KD column of the PK table (repeats Table 6)
[9] = target: T3, mouse serum albumin; test: as above
[10] = target: B4; test: BIAcore SPR, second independent experiment;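 further: purified domain antibodies run as analytes at 50 nM, 500 nM and 1 µM over HSA, CSA, MSA and RSA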
Method: as §1

[11] = target: T1, Human Serum Albumin; test: BIAcore SPR, second independent experiment;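 further: purified domain antibodies run as analytes at 50 nM, 500 nM and 1 µM over HSA, CSA, MSA and RSA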
Method: as §1

[12] = target: T2, Cynomolgus monkey Serum Albumin; test: BIAcore SPR, second independent experiment;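 further: purified domain antibodies run as analytes at 50 nM, 500 nM and 1 µM over HSA, CSA, MSA and RSA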
Method: as §1

[13] = target: T3, mouse serum albumin; test: BIAcore SPR, second independent experiment;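 further: purified domain antibodies run as analytes at 50 nM, 500 nM and 1 µM over HSA, CSA, MSA and RSA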
Method: as §1

[14] = target: B4; test: BIAcore SPR, second independent experiment; second, independent SPR experiment (bracketed values)
Method: as §1

[15] = target: T4, DOM7h-14-19/Exendin-4 fusion DMS number 7141; test: BIAcore SPR (Albumin KD column)
T4 construct: exendin-4, (G4S)3 linker, AlbudAb; also called DMS7141

[16] = target: T5, DOM7h-11-12/Exendin-4 fusion DMS number 7147; test: BIAcore SPR (Albumin KD column)
T5 construct: exendin-4, (G4S)3 linker, AlbudAb; also called DMS7147

[17] = target: T6, DOM7h-14-18/Exendin-4 fusion DMS number 7140; test: BIAcore SPR (Albumin KD column)
T6 construct: exendin-4, (G4S)3 linker, AlbudAb; also called DMS7140

[18] = target: T7, DOM7h-14/Exendin-4 fusion DMS number 7138; test: BIAcore SPR (Albumin KD column)
T7 construct: exendin-4, (G4S)3 linker, AlbudAb; also called DMS7138

[19] = target: T8, DOM7h-11/Exendin-4 fusion DMS number 7142; test: BIAcore SPR (Albumin KD column)
T8 construct: exendin-4, (G4S)3 linker, AlbudAb; also called DMS7142

[20] = target: T9, DOM7h-14-10/Exendin-4 fusion DMS number 7139; test: BIAcore SPR (Albumin KD column)
T9 construct: exendin-4, (G4S)3 linker, AlbudAb; also called DMS7139

[21] = target: T10, DOM7h-11-15/Exendin-4 fusion DMS number 7143; test: BIAcore SPR (Albumin KD column)
T10 construct: exendin-4, (G4S)3 linker, AlbudAb; also called DMS7143

[22] = target: B4; test: BIAcore SPR (Albumin KD column)
[23] = target: B4; test: BIAcore SPR, DOM1m-21-23 fusion against unfused AlbudAb

T2 sequence (A2V9Z4 25-608): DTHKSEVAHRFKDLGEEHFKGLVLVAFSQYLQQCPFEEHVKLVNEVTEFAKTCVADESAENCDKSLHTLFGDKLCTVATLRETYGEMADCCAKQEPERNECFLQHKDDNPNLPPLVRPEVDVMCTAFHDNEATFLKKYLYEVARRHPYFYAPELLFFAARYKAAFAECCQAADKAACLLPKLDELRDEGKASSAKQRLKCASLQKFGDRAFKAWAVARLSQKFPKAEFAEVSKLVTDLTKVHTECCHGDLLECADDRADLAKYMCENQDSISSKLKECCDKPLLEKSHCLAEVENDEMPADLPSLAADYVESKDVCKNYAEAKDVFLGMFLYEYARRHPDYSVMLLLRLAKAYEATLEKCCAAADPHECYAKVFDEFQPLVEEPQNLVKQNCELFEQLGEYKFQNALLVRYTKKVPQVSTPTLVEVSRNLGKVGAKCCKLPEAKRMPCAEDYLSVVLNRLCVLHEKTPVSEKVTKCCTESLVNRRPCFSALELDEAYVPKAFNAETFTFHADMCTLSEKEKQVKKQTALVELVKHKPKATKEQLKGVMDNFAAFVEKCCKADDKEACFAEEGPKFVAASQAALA
T3 sequence (P07724 25-608): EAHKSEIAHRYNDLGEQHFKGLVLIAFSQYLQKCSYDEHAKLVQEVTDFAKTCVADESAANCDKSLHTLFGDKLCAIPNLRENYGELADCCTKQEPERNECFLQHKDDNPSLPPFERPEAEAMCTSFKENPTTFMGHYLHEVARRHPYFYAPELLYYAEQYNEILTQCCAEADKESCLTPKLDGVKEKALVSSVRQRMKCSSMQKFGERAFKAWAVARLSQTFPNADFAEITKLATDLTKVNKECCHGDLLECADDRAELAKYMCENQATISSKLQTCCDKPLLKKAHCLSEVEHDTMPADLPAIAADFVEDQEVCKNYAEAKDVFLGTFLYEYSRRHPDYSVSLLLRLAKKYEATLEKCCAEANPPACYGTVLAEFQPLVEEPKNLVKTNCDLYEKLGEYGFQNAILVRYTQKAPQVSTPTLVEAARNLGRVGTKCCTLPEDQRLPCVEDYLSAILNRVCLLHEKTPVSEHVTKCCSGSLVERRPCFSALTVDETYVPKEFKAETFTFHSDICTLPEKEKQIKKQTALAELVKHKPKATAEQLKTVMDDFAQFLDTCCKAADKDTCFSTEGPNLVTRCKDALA

B1: DOM7h-14 (other)
VL: DIQMTQSPSSLSASVGDRVTITCRASQWIGSQLSWYQQKPGKAPKLLIMWRSSLQSGVPSRFSGSGSGTDFTLTISSLQPEDFATYYCAQGAALPRTFGQGTKVEIKR
notes: Vk dAb (AlbudAb)
Kd [1]: 60 nM
koff [1]: 0.209 s⁻¹
kon [1]: 4e+06 M⁻¹ s⁻¹
Kd [2]: 33 nM
koff [2]: 0.0417 s⁻¹
kon [2]: 1.43e+06 M⁻¹ s⁻¹
Kd [3]: 66 nM
koff [3]: 0.0965 s⁻¹
kon [3]: 1.5e+06 M⁻¹ s⁻¹
Kd [4]: 12 nM
koff [4]: 0.0482 s⁻¹
kon [4]: 4.1e+06 M⁻¹ s⁻¹
Kd [5]: 66 nM
Kd [6]: 60 nM

B2: DOM7h-11 (other)
VL: DIQMTQSPSSLSASVGDRVTITCRASRPIGTTLSWYQQKPGKAPKLLIWFGSRLQSGVPSRFSGSGSGTDFTLTISSLQPEDFATYYCAQAGTHPTTFGQGTKVEIKR
Kd [7]: 3300 nM
Kd [1]: 2100 nM
koff [1]: 0.1 s⁻¹
kon [1]: 48000 M⁻¹ s⁻¹
Kd [3]: 1000 nM
koff [3]: 0.682 s⁻¹
kon [3]: 800000 M⁻¹ s⁻¹
Kd [4]: 5000 nM
koff [4]: 0.9 s⁻¹
Kd [8]: 2100 nM
Kd [9]: 5000 nM

B3: DOM7h-11-3 (other)
VL: DIQMTQSPSSLSASVGDRVTITCRASRPIGTTLSWYQQKPGKAPKLLILWNSRLQSGVPSRFSGSGSGTDFTLTISSLQPEDFATYYCAQAGTHPTTFGQGTKVEIKR
Kd [1]: 10000 nM
Kd [2]: 32 nM
koff [2]: 0.016 s⁻¹
kon [2]: 650000 M⁻¹ s⁻¹
Kd [3]: 670 nM
koff [3]: 0.096 s⁻¹
kon [3]: 290000 M⁻¹ s⁻¹
Kd [4]: ≥ 10000 nM
Kd [10]: 88000 nM
kon [10]: 8110 M⁻¹ s⁻¹
Kd [11]: 130 nM
koff [11]: 0.0235 s⁻¹
kon [11]: 186000 M⁻¹ s⁻¹
Kd [12]: 200 nM
koff [12]: 0.15 s⁻¹
kon [12]: 726000 M⁻¹ s⁻¹
Kd [13]: 36000 nM
koff [13]: 0.612 s⁻¹
kon [13]: 16700 M⁻¹ s⁻¹
koff [14]: 0.718 s⁻¹

B4
Kd [15]: 17000 nM
Kd [16]: 1400 nM
Kd [17]: 16000 nM
Kd [18]: 2400 nM
Kd [19]: 24000 nM
Kd [20]: 19 nM
Kd [21]: 130 nM

B5: DOM7h14-10/TVAAPSC fusion (NCE conjugate) (other)
chain: DIQMTQSPSSLSASVGDRVTITCRASQWIGSQLSWYQQKPGKAPKLLIMWRSSLQSGVPSRFSGSGSGTDFTLTISSLQPEDFATYYCAQGLRHPKTFGQGTKVEIKRTVAAPSC
modifications: C-terminal Cys of the TVAAPSC spacer conjugated by maleimide through a PEG 4 linker to the NCE (small molecule ADAMTS-4 inhibitor)
notes: AlbudAb-drug conjugate; also called DOM7h14-10 NCE-TVAAPSC
Kd [22]: 35 nM

B6: DOM7h-11-12/DOM1m-21-23 fusion DMS number 5516 (other)
chain: EVQLLESGGGLVQPGGSLRLSCAASGFTFNRYSMGWLRQAPGKGLEWVSRIDSYGRGTYYEDPVKGRFSISRDNSKNTLYLQMNSLRAEDTAVYYCAKISQFGSNAFDYWGQGTQVTVSSASTSGPSDIQMTQSPSSLSASVGDRVTITCRASRPIGTMLSWYQQKPGKAPKLLILFGSRLQSGVPSRFSGSGSGTDFTLTISSLQPEDFATYYCAQAGTHPTTFGQGTKVEIKR
notes: also called DMS5516
fold decrease in affinity to RSA compared to the unfused AlbudAb [23]: 2 fold

B7: DOM7h-11-15/DOM1m-21-23 fusion DMS number 5517 (other)
chain: EVQLLESGGGLVQPGGSLRLSCAASGFTFNRYSMGWLRQAPGKGLEWVSRIDSYGRGTYYEDPVKGRFSISRDNSKNTLYLQMNSLRAEDTAVYYCAKISQFGSNAFDYWGQGTQVTVSSASTSGPSDIQMTQSPSSLSASVGDRVTITCRASRPIGTMLSWYQQKPGKAPKLLILAFSRLQSGVPSRFSGSGSGTDFTLTISSLQPEDFATYYCAQAGTHPTTFGQGTKVEIKR
notes: also called DMS5517
fold decrease in affinity to RSA compared to the unfused AlbudAb [23]: 2 fold
